Laboratory results reported in the supplement of paper PMC7125110.
± gives the standard error. For some assays here: Variants at the floor of the assay were thinned out.

B1: glmS ribozyme (parent)
chain: AUAAAAGCGCCAGAACUACAGAAAUGUAGUUGACGAGGAGGAGGUUUAUCGAAUUUUCGGCGGAUGCCUCCAAA

How the values were obtained:
Settings in all cases: with glucosamine-6-phosphate
[1] = variants of: B1; test: kcat; higher = faster cleavage; RNA array
Procedure, shortened: (§1)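 Weighted Michaelis–Menten fits across concentrations supplied kcat and KM, based on kobs from one- or two-exponential decay fits to normalised per-tile medians. The data came from barcoded ribozyme variants transcribed in situ by E. coli RNA polymerase on sequenced MiSeq chips and tracked at 37 °C by a hybridised Cy3 probe. Glucosamine-6-phosphate (40 μM to 10 mM) in HEPES/KCl/Mg(OAc)2 buffer was flowed in.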

[2] = variants of: B1; test: KM; higher = weaker cofactor use; RNA array
Procedure, shortened: as §1

[3] = variants of: B1; test: self-cleavage kobs at 160 uM GlcN6P; higher = faster cleavage; RNA array
Procedure, shortened: as §1

[4] = variants of: B1; test: self-cleavage kobs at 640 uM GlcN6P; higher = faster cleavage; RNA array
Procedure, shortened: as §1

[5] = variants of: B1; test: self-cleavage kobs at 2500 uM GlcN6P; higher = faster cleavage; RNA array
Procedure, shortened: as §1

[6] = variants of: B1; test: self-cleavage kobs at 10000 uM GlcN6P; higher = faster cleavage; RNA array
Procedure, shortened: as §1

[7] = variants of: B1; test: self-cleavage kobs at 40 uM GlcN6P; higher = faster cleavage; RNA array
Procedure, shortened: as §1

Variant	kcat [1] [s⁻¹]	KM [2] [µM]	self-cleavage kobs at 160 uM GlcN6P [3] [s⁻¹]	self-cleavage kobs at 640 uM GlcN6P [4] [s⁻¹]	self-cleavage kobs at 2500 uM GlcN6P [5] [s⁻¹]	self-cleavage kobs at 10000 uM GlcN6P [6] [s⁻¹]	self-cleavage kobs at 40 uM GlcN6P [7] [s⁻¹]
A12C A42U	0.000217 ± 1.2e-05	1230 ± 230	3.19e-05 ± 1e-05	6.67e-05 ± 1.1e-05	0.00016 ± 2.1e-05	0.000192 ± 1.2e-05	–
C34A U56G	< 1e-05	31 ± 12	< 1e-05	< 1e-05	< 1e-05	–	< 1e-05
A39U U57C	0.00022 ± 2.2e-05	9720 ± 1500	–	–	4.56e-05 ± 8.7e-06	0.000111 ± 2.2e-05	–
A48U C71U	0.000562 ± 8.4e-05	1890 ± 590	–	0.000153 ± 2.3e-05	0.000338 ± 5.6e-05	0.000461 ± 5.6e-05	–
A15G	0.0648 ± 0.0031	2180 ± 120	0.00423 ± 0.00032	0.0144 ± 0.00063	0.0326 ± 0.0018	0.0552 ± 0.0025	0.00118 ± 2.4e-05
C10U A14C	< 1e-05	–	–	–	–	–	< 1e-05
G41U U47A	0.000627 ± 0.00021	–	0.000127 ± 3.9e-05	0.000232 ± 5.2e-05	0.000656 ± 0.00012	0.000706 ± 0.00012	7.19e-05 ± 1.3e-05
U57G C58U C70U	1.35e-05 ± 3.4e-06	–	< 1e-05	–	–	–	–
G44A U56A	0.00026 ± 6.2e-06	2650 ± 150	–	4.93e-05 ± 1.6e-05	0.00013 ± 2.6e-05	0.000205 ± 2.9e-05	–
A15U G29A	0.00194 ± 0.00084	–	7.32e-05 ± 1.6e-05	0.000218 ± 4.3e-05	0.00039 ± 0.0001	0.00142 ± 0.0002	–
A48G U57C	1.23e-05 ± 2.5e-06	–	–	–	–	–	–
C16G C71G	0.000131 ± 1.2e-05	303 ± 130	6.73e-05 ± 2.1e-05	8e-05 ± 1.3e-05	0.000114 ± 1.3e-05	0.00014 ± 1.8e-05	–
A6U A14G	0.000657 ± 7.8e-05	2280 ± 480	4.93e-05 ± 2.3e-05	0.000135 ± 2.3e-05	0.000414 ± 8.3e-05	0.000513 ± 8.4e-05	–
A14G C16G	0.0069 ± 0.0022	–	0.00113 ± 0.00027	0.00514 ± 0.0008	0.00397 ± 0.0011	0.00854 ± 0.0016	0.000569 ± 8.6e-05
C50G U56C	1.76e-05 ± 2.6e-06	–	–	–	–	–	–
A39U G41C	2.16e-05 ± 4.5e-07	1200 ± 150	–	–	–	1.93e-05 ± 7.7e-06	< 1e-05
A15C C68U	0.00105 ± 0.00025	2390 ± 860	6.98e-05 ± 8.8e-06	0.000191 ± 2.7e-05	0.000847 ± 0.00011	0.000796 ± 8.8e-05	–
G40A G41U	7.26e-05 ± 2.3e-06	1160 ± 110	–	2.54e-05 ± 8.5e-06	5.29e-05 ± 1.9e-05	6.43e-05 ± 1.3e-05	–
A64G U65C C70G	1.52e-05 ± 6.7e-06	–	–	–	–	–	–

Variant	kcat [1] [s⁻¹]	KM [2] [µM]	self-cleavage kobs at 160 uM GlcN6P [3] [s⁻¹]	self-cleavage kobs at 640 uM GlcN6P [4] [s⁻¹]	self-cleavage kobs at 2500 uM GlcN6P [5] [s⁻¹]	self-cleavage kobs at 10000 uM GlcN6P [6] [s⁻¹]	self-cleavage kobs at 40 uM GlcN6P [7] [s⁻¹]
G37C C70U	2.69e-05 ± 6.4e-06	–	–	2.26e-05 ± 9.4e-06	1.7e-05 ± 5.8e-06	3.18e-05 ± 7.2e-06	–
U56G G60A	2.37e-05 ± 6.7e-07	623 ± 130	–	–	–	2.25e-05 ± 1.1e-05	< 1e-05
A39U C71A	0.00326 ± 0.00043	1880 ± 370	0.000353 ± 6.3e-05	0.000728 ± 0.00015	0.00175 ± 0.00039	0.0028 ± 0.00031	6.47e-05 ± 9.1e-06
A6U U30C	< 1e-05	–	–	< 1e-05	< 1e-05	–	–
A39U A42U	0.00653 ± 0.0017	1400 ± 530	0.000582 ± 8.8e-05	0.00223 ± 0.00042	0.00602 ± 0.0014	0.00529 ± 0.00096	0.000312 ± 7.2e-05
A14G C70U C71G	0.000213 ± 6.9e-05	–	–	0.000185 ± 3.7e-05	0.00039 ± 8.8e-05	0.000168 ± 3.3e-05	–
G29A U30C	3.24e-05 ± 8.4e-06	–	–	–	4.91e-05 ± 1.5e-05	2.58e-05 ± 1e-05	–
A12G U65G	0.000107 ± 1.4e-05	2380 ± 960	–	3.32e-05 ± 9e-06	4.72e-05 ± 8.3e-06	8.79e-05 ± 7.1e-06	–
G13A C16G	0.000217 ± 1.4e-05	1970 ± 290	–	5.02e-05 ± 1.2e-05	0.000131 ± 2.4e-05	0.000178 ± 2.5e-05	–
G37C G60A C68U	1.98e-05 ± 7.3e-06	–	–	–	–	–	–
G59U C68G	2.57e-05 ± 4.8e-06	–	–	–	–	–	–
A42G U47G	0.00929 ± 0.0033	–	0.00105 ± 0.00032	0.0029 ± 0.00064	0.0046 ± 0.001	0.0143 ± 0.0028	0.000293 ± 6.2e-05
C34A A36C U45A	< 1e-05	–	< 1e-05	–	–	–	< 1e-05
A52C C67G	1.74e-05 ± 6.9e-06	–	–	–	–	–	–
G35U U54G C70A	1.53e-05 ± 4.8e-06	–	–	–	< 1e-05	–	–
A39G C68A	2.73e-05 ± 9.4e-06	–	–	–	–	–	–
G7A C34U C70G	1.85e-05 ± 9.1e-06	–	–	–	–	–	–
A12G A53U C67U	0.000372 ± 8.2e-05	6210 ± 2000	–	–	0.00011 ± 1.7e-05	0.00022 ± 7.2e-05	–
